Laboratory results: patent publication US20030203372A1, “Analysis method” (priority 2000, published 2003)

How the values were obtained:
[1] = test system: primary human cell cultures (11 cell types); assay: Custom gene array, 11 human cell types in normoxia or hypoxia for 6 hr and 18 hr; format: cell-based; conditions: for mRNA expression level, #1 HY 6 hr: cell type #1, hypoxia 6 hr; for mRNA expression level, #1 HY 18 hr: cell type #1, hypoxia 18 hr; for mRNA expression level, #1 NO: cell type #1, normoxia; for mRNA expression level, #2 HY 6 hr: cell type #2, hypoxia 6 hr; for mRNA expression level, #2 HY 18 hr: cell type #2, hypoxia 18 hr; for mRNA expression level, #2 NO: cell type #2, normoxia; for mRNA expression level, #3 HY 6 hr: cell type #3, hypoxia 6 hr; for mRNA expression level, #3 HY 18 hr: cell type #3, hypoxia 18 hr; for mRNA expression level, #3 NO: cell type #3, normoxia; for mRNA expression level, #4 HY 6 hr: cell type #4, hypoxia 6 hr; for mRNA expression level, #4 HY 18 hr: cell type #4, hypoxia 18 hr; for mRNA expression level, #4 NO: cell type #4, normoxia; for mRNA expression level, #5 HY 6 hr: cell type #5, hypoxia 6 hr; for mRNA expression level, #5 NO: cell type #5, normoxia; for mRNA expression level, #6 HY 6 hr: cell type #6, hypoxia 6 hr; for #6 HY 18 hr (mRNA expression level): cell type #6, hypoxia 18 hr; for mRNA expression level, #6 NO: cell type #6, normoxia; for #7 HY 6 hr (mRNA expression level): cell type #7, hypoxia 6 hr; for #7 HY 18 hr (mRNA expression level): cell type #7, hypoxia 18 hr; for #7 NO (mRNA expression level): cell type #7, normoxia; for #8 HY 6 hr (mRNA expression level): cell type #8, hypoxia 6 hr; for #8 HY 18 hr (mRNA expression level): cell type #8, hypoxia 18 hr; for #8 NO (mRNA expression level): cell type #8, normoxia; for #9 HY 6 hr (mRNA expression level): cell type #9, hypoxia 6 hr; for #9 HY 18 hr (mRNA expression level): cell type #9, hypoxia 18 hr; for #9 NO (mRNA expression level): cell type #9, normoxia; for #10 HY 6 hr (mRNA expression level): cell type #10, hypoxia 6 hr; for #10 HY 18 hr (mRNA expression level): cell type #10, hypoxia 18 hr; for #10 NO (mRNA expression level): cell type #10, normoxia; for #11 HY 6 hr (mRNA expression level): cell type #11, hypoxia 6 hr; for #11 HY 18 hr (mRNA expression level): cell type #11, hypoxia 18 hr; for #11 NO (mRNA expression level): cell type #11, normoxia; for HIGHEST FOLD CHANGE IN HYPOXIA (hr hypoxia + cell type): hypoxia/normoxia induction ratio;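 on mRNA expression level, #1 HY 18 hr: cell type #1 is adipocyte from subcutaneous adult adipose tissue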;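 on mRNA expression level, #1 HY 6 hr: cell type #1 is adipocyte from subcutaneous adult adipose tissue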;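 on mRNA expression level, #1 NO: cell type #1 is adipocyte from subcutaneous adult adipose tissue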;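 on mRNA expression level, #2 HY 18 hr: cell type #2 is fetal cardiomyocyte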;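 on mRNA expression level, #2 HY 6 hr: cell type #2 is fetal cardiomyocyte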;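 on mRNA expression level, #2 NO: cell type #2 is fetal cardiomyocyte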;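 on mRNA expression level, #3 HY 6 hr: cell type #3 is human umbilical vein endothelial cells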;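 on mRNA expression level, #3 NO: cell type #3 is human umbilical vein endothelial cells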;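 on mRNA expression level, #4 HY 18 hr: cell type #4 is adult dermal fibroblast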;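 on mRNA expression level, #4 HY 6 hr: cell type #4 is adult dermal fibroblast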;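 on mRNA expression level, #4 NO: cell type #4 is adult dermal fibroblast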;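 on mRNA expression level, #5 HY 6 hr: cell type #5 is adult hepatocyte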;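 on mRNA expression level, #5 NO: cell type #5 is adult hepatocyte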;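 on mRNA expression level, #6 HY 6 hr: cell type #6 is blood-derived macrophage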;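 on mRNA expression level, #6 NO: cell type #6 is blood-derived macrophage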
Procedure, shortened: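 Eleven primary, unmodified human cell types (one non-primary neuronal type) held in normoxia or hypoxia for 6 hr and 18 hr. RNA hybridised to duplicate or triplicate custom arrays, normalised per array to reference genes. Expression given relative to each gene's median across all conditions.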

human macrophages = assay: Custom gene array, macrophages with no cytokines, IL-10 or LPS + IFN, in normoxia and hypoxia; format: cell-based; conditions: for mRNA EXPRESSION (experimental condition) #1: #1 no cytokines/normoxia; for mRNA EXPRESSION (experimental condition) #2: #2 no cytokines/hypoxia; for mRNA EXPRESSION (experimental condition) #3: #3 IL-10/normoxia; for mRNA EXPRESSION (experimental condition) #4: #4 IL-10/hypoxia; for mRNA EXPRESSION (experimental condition) #5: #5 LPS/IFN/normoxia; for mRNA EXPRESSION (experimental condition) #6: #6 LPS/IFN/hypoxia
Experimental: Macrophages were derived and cultured as described elsewhere in the specification. A total of 6 experimental conditions were analysed, as shown below. Where cells were treated with cytokines or hypoxia (0.1% oxygen), this was for 6 hr. Lipopolysaccharide (LPS) (from E.coli 026:B6; Sigma), gamma Interferon (IFN) and Interleukin-10 (IL-10) were all used at a final concentration of 100 ng/ml. The effect of gamma Interferon and Lipopolysaccharide is to activate macrophages, with a Th1 biased phenotype, as found in many inflammatory conditions. Interleukin-10 is a Th2 cytokine and de-activates macrophages, and suppresses their effector functions.

[2] = Table 15, referenced to the median value of that gene throughout all 6 conditions
[3] = Table 16, referenced to median of the gene over 6 conditions

B1: p1D24 (nucleic acid, listed as Homo Sapiens)
DNA: TTCTATCAGAAATTGTATTTATTTACCAGCATTTATGGCAAATGGCCAGACCTGGGCAGGGTGGTAGCAATGATAGATTTTACAAATTAAGGCATTGTTCTTTATTTCAAANTTTTCATTTACCNATATTTTCCTTGGTCTTAGAAATATGAATANTTTAGAGCTGGCAATACTCACCATCAGGATATAATAAACGGAGGTTTCTTTNTCCGAAATCCATAAANTGTAGTANTACTCTNTTGTACTTTTAAAATTCCNATTTTTGCAGTNGGCTTCCTCTCAGTGATTTAGTTAGGNAGTTTTGGTACATTTTGGNGGGGTCATAAACATGTTCATAGGATAGGAGTACNGGGCATTTNTGGAAAAACCCG
modifications: EST array clone; misc_feature 112, 125, 156, 208, 224, 232, 239, 258, 270, 297, 316, 350,359: n = A,T,C or G
- mRNA expression level, #1 HY 6 hr [1]: 0.71
- mRNA expression level, #1 HY 18 hr [1]: 1.39
- mRNA expression level, #1 NO [1]: 0.98
- mRNA expression level, #2 HY 6 hr [1]: 1.98
- mRNA expression level, #2 HY 18 hr [1]: 2.16
- mRNA expression level, #2 NO [1]: 1.55
- mRNA expression level, #3 HY 6 hr [1]: 1.47
- mRNA expression level, #3 HY 18 hr [1]: 1.01
- mRNA expression level, #3 NO [1]: 1.18
- mRNA expression level, #4 HY 6 hr [1]: 0.49
- mRNA expression level, #4 HY 18 hr [1]: 0.67
- mRNA expression level, #4 NO [1]: 0.74
- mRNA expression level, #5 HY 6 hr [1]: 1.94
- mRNA expression level, #5 NO [1]: 1.53
- mRNA expression level, #6 HY 6 hr [1]: 0.98
- #6 HY 18 hr (mRNA expression level) [1]: 0.96
- mRNA expression level, #6 NO [1]: 0.90
- #7 HY 6 hr (mRNA expression level) [1]: 0.79
- #7 HY 18 hr (mRNA expression level) [1]: 0.49
- #7 NO (mRNA expression level) [1]: 0.71
- #8 HY 6 hr (mRNA expression level) [1]: 0.90
- #8 HY 18 hr (mRNA expression level) [1]: 0.93
- #8 NO (mRNA expression level) [1]: 0.53
- #9 HY 6 hr (mRNA expression level) [1]: 0.51
- #9 HY 18 hr (mRNA expression level) [1]: 0.43
- #9 NO (mRNA expression level) [1]: 0.81
- #10 HY 6 hr (mRNA expression level) [1]: 10.9
- #10 HY 18 hr (mRNA expression level) [1]: 11.79
- #10 NO (mRNA expression level) [1]: 4.63
- #11 HY 6 hr (mRNA expression level) [1]: 2.23
- #11 HY 18 hr (mRNA expression level) [1]: 1.65
- #11 NO (mRNA expression level) [1]: 1.85
- HIGHEST FOLD CHANGE IN HYPOXIA (hr hypoxia + cell type) ([1]; 18 hr renal epithelial): 2.55 (18 hr renal epithelial) fold
- mRNA EXPRESSION (experimental condition) #1 (human macrophages; [2]): 0.58
- mRNA EXPRESSION (experimental condition) #2 (human macrophages; [2]): 0.71
- mRNA EXPRESSION (experimental condition) #3 (human macrophages; [2]): 1.00
- mRNA EXPRESSION (experimental condition) #4 (human macrophages; [2]): 1.32
- mRNA EXPRESSION (experimental condition) #5 (human macrophages; [2]): 1.56
- mRNA EXPRESSION (experimental condition) #6 (human macrophages; [2]): 2.59

B2: p1E1 (nucleic acid, listed as Homo Sapiens)
DNA: TTTTGGTCTGAGAATGATGGACATTTAGACACTGGCGCCAGGTTTGCGCTGGACCGGCGCACGCAGGGGTTGGGCGGACGAAAGACACACAGGTGGGCTACAGGTGTCACACGGCACCAGCCAGGGCCCGGGGTGGCTGGGGTGAGGATGGGTGTTTGGCCAGTGACCAGGAGTCAGGTCAAGTCCAGGTGGTCAGTGCCAGGGGTCCCAGGAGGGGAGGGCAGTGCATTAACCCTCCTGGTGTCCAGCGTCACCAGGCGGTCGTCACAGAAAGCAACCTCGGCCCGGGGCCG
modifications: EST array clone
- mRNA expression level, #1 HY 6 hr [1]: 1.31
- mRNA expression level, #1 HY 18 hr [1]: 2.14
- mRNA expression level, #1 NO [1]: 2.91
- mRNA expression level, #2 HY 6 hr [1]: 6.21
- mRNA expression level, #2 HY 18 hr [1]: 2.25
- mRNA expression level, #2 NO [1]: 3.07
- mRNA expression level, #3 HY 6 hr [1]: 2.11
- mRNA expression level, #3 HY 18 hr [1]: 1.28
- mRNA expression level, #3 NO [1]: 1.08
- mRNA expression level, #4 HY 6 hr [1]: 1.01
- mRNA expression level, #4 HY 18 hr [1]: 1.21
- mRNA expression level, #4 NO [1]: 1.02
- mRNA expression level, #5 HY 6 hr [1]: 0.80
- mRNA expression level, #5 NO [1]: 0.56
- mRNA expression level, #6 HY 6 hr [1]: 1.16
- #6 HY 18 hr (mRNA expression level) [1]: 1.25
- mRNA expression level, #6 NO [1]: 0.64
- #7 HY 6 hr (mRNA expression level) [1]: 0.42
- #7 HY 18 hr (mRNA expression level) [1]: 0.29
- #7 NO (mRNA expression level) [1]: 0.29
- #8 HY 6 hr (mRNA expression level) [1]: 0.47
- #8 HY 18 hr (mRNA expression level) [1]: 0.91
- #8 NO (mRNA expression level) [1]: 0.28
- #9 HY 6 hr (mRNA expression level) [1]: 1.24
- #9 HY 18 hr (mRNA expression level) [1]: 0.88
- #9 NO (mRNA expression level) [1]: 1.03
- #10 HY 6 hr (mRNA expression level) [1]: 0.61
- #10 HY 18 hr (mRNA expression level) [1]: 0.60
- #10 NO (mRNA expression level) [1]: 0.32
- #11 HY 6 hr (mRNA expression level) [1]: 4.39
- #11 HY 18 hr (mRNA expression level) [1]: 2.33
- #11 NO (mRNA expression level) [1]: 3.03
- HIGHEST FOLD CHANGE IN HYPOXIA (hr hypoxia + cell type) ([1]; 6 hr cardiomyocyte): 3.24 (6 hr cardiomyocyte) fold
- mRNA EXPRESSION (experimental condition) #1 (human macrophages; [3]): 1.21
- mRNA EXPRESSION (experimental condition) #2 (human macrophages; [3]): 1.64
- mRNA EXPRESSION (experimental condition) #3 (human macrophages; [3]): 0.94
- mRNA EXPRESSION (experimental condition) #4 (human macrophages; [3]): 1.35
- mRNA EXPRESSION (experimental condition) #5 (human macrophages; [3]): 0.51
- mRNA EXPRESSION (experimental condition) #6 (human macrophages; [3]): 0.63

B3: p1F6 (nucleic acid, listed as Homo Sapiens)
DNA: GTCCATCTTGCTGCTGTCCACTTTGGGTTCCATCTTGGGCTCCATCTTGCTCTCACGATTAAAAGCTTCTTTCCTGCTTTCCCCATTCCGACCATCATTTGCACCCCGGTTCTCCCCATGCCGGCCTGCGCTTCCTCCATGTCTGTTCTCCCCGTGCCGATGGCCATCAGTATGACGGCTGCTGCTTTCTGGATGGCGGTATCCATCTCCATGGCGACCACCATCTCCGTGACGTGGACTATCGCTATGCCGATTGCCAGTCTCTCCGTGACTGTGACGGCTGCTGCCCCGGTTCTCAGTATATCTCTCTCTTTTCCCGTTGCTGCCCCCAGTCCCTTCTCGGCTGTTATTCCCTGAAGCTGTGTTGTTGACTCCTTGGGCTCCGGCAGACGGGTAGGTCACAGGGGCACCACTGATGTTGCCAGTATTGCCAAAGCCTGGGATGCCCTTGGCGGCACTGGTGACGGGGCTGTCAGGACTGTTATGGCCCTGTTGTGCTGAGTTAGTTGGAACAGAATTCAAGCTCCCTGCACTAGTCCACCTGCCCCACTGCTTCTTCGCTTCTCTCTTGGAAAGTCCAGTCTCTCCTCGGCTTGCAATGGACCCCAACTGCTCCTGCGCCGCTGGTGTCTCCTGCACCTGCGCTGGTTCCTGCAAGTGCAAAGAGTGCAAATGCACCTCCTGCAAGAAGAGCTGCTGCTCCTGCTGCCCCGTGGGCTGTAGCAAGTGTGCCCAGGGCTGTGTTTGCAAAGGGGCGTCAGAGAAGTGCAGCTGCTGCGACTGATGCCAGGACAACCTTTCTCCCAGATGTAAACAGAGAGACATGTACAAACCTGGATTTTTTTTTTATACCACCTTGACCCATTTGCTACATTCCTTTTCCTGTGAAATATGTGAGTGATAATTAAACACTTTAGACCTGAAAAAAAAAAAAAAAAAAAAAAAAAAAAAAAAAAAAAAAAAAAAAAAAAAAAAAAAAAAAAAAAAAAAAAAAAAAAAAAAAAAAAAAAAAAAAAAAAAAAAAAAAAAAAAAAAAAAAAAAAAAAAAAAAAAAAAAAAAAAAAAAAAAAA
- HIGHEST FOLD CHANGE IN HYPOXIA (hr hypoxia + cell type) ([1]; 18 hr monocyte): 67.4 (18 hr monocyte) fold
- mRNA EXPRESSION (experimental condition) #1 (human macrophages; [2]): 0.44
- mRNA EXPRESSION (experimental condition) #2 (human macrophages; [2]): 1.08
- mRNA EXPRESSION (experimental condition) #3 (human macrophages; [2]): 0.47
- mRNA EXPRESSION (experimental condition) #4 (human macrophages; [2]): 1.06
- mRNA EXPRESSION (experimental condition) #5 (human macrophages; [2]): 1.11
- mRNA EXPRESSION (experimental condition) #6 (human macrophages; [2]): 2.47
